Assay results taken from PMC10397247.

Columns and labels:
Assay in all cases: two-hybrid library CCNG1;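 also: natural log of median RNA to DNA barcode read ratio; higher means stronger binding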
O14-bP = molecular target: T1, O14-bP
T1 chain: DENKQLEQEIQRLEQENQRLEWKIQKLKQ

O15-bP = molecular target: T2, O15-bP
T2 chain: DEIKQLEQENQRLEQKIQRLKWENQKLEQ

O16-bP = molecular target: T3, O16-bP
T3 chain: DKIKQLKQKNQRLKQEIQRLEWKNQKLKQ

O2-bP = molecular target: T4, O2-bP
T4 chain: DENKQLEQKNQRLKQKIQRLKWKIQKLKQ

O3-bP = molecular target: T5, O3-bP
T5 chain: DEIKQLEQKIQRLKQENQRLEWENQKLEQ

O4-bP = molecular target: T6, O4-bP
T6 chain: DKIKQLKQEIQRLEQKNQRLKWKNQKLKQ

O5-bP = molecular target: T7, O5-bP
T7 chain: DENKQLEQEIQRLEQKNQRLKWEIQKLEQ

O6-bP = molecular target: T8, O6-bP
T8 chain: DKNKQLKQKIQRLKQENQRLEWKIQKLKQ

O7-bP = molecular target: T9, O7-bP
T9 chain: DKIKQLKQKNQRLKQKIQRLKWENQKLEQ

O8-bP = molecular target: T10, O8-bP
T10 chain: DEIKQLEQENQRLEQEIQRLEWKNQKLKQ

O9-bP = molecular target: T11, O9-bP
T11 chain: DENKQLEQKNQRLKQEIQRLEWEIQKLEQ

O13-bP = molecular target: T12, O13-bP
T12 chain: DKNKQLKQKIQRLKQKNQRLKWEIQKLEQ

4H344-bH = molecular target: T13, 4H344-bH
T13 chain: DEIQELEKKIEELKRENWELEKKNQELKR

4H363-bH = molecular target: T14, 4H363-bH
T14 chain: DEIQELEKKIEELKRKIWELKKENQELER

4H3907-bH = molecular target: T15, 4H3907-bH
T15 chain: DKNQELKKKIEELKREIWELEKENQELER

4H3961-bH = molecular target: T16, 4H3961-bH
T16 chain: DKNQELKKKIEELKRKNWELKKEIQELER

4H470-bH = molecular target: T17, 4H470-bH
T17 chain: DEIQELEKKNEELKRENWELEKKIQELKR

Binder	interaction score (O14-bP)	interaction score (O15-bP)	interaction score (O16-bP)	interaction score (O2-bP)	interaction score (O3-bP)	interaction score (O4-bP)	interaction score (O5-bP)	interaction score (O6-bP)	interaction score (O7-bP)	interaction score (O8-bP)	interaction score (O9-bP)	interaction score (O13-bP)	interaction score (4H344-bH)	interaction score (4H363-bH)	interaction score (4H3907-bH)	interaction score (4H3961-bH)	interaction score (4H470-bH)
DENKQLEQEIQRLEQENQRLEWKIQKLKQ [O14-bP]	-1.46	-0.0315	1.73	-0.77	-0.787	-1.04	1.11	1.82	0.0513	-2.05	-0.215						
DKNKQLKQKIQRLKQKNQRLKWEIQKLEQ [O13-bP]	1.35	-0.599	-1.17	-1.3	-1.76	-0.851	-0.814	-0.094	-1.19	-0.609	-1.05	-2.25					
DEIQELEKKIEELKRENWELEKKNQELKR [4H344-bH]													0.843	0.49	0.791	0.837	0.944
